Data on 16 sequences can be found in the DeepSol protein solubility set.

The data set in a line: soluble on expression in E. coli; label from the status in PepcDB or PDB records.
Consider “MSLSDRLTAFKELIQAGGAKRPADLIIKNGQLVNVMTAEIYPAEVAIYQGKIVAVDPDVSAYQGTETRVIDAKQQYIVPGLIDGHIHVECSKLSMTSFAEAVVPHGTTSIISGLDEYISVIGVDGLSEIFKEVDQLPMRVFWGAPFKTPYTIPASTIADNIDSTVQAQLQKRSDVYGVWETVREAVETLDEDTLKTLLNAQDNHVPVWGCAPMATGTKLNEYLMSGVRVDHESYDHQELLEKVRKGINVVIRESSVTHFLAENIRAITETNGQIARHVSFCTDDVNAMDIVNKGHLDHLVRLAIAAGVAPMTAIQMATINSAEAYRIDDQVGLIAPGRNADILLVSDLEAFEIKRVLAKGQPVATDGHINQSIERPVRPASLANTIIREAVQASDFEYHVAADASQVTVQTIASEGPFVRHAKTKTLTVEDGIVQIDPAKDVALISVLERFGKNGNQSLGFTSGWTLKKGAMASTAAPDDNNIIVMGVNPDDMALAVNTLIERDGGQVVVADGQILSFLPLPIAGIVSDVTPAELAVQEEGILKASQAIGSEVVDPMFYMTFLPITAIPDLAITDLGNVDCNELRLFDPILTIQEGHHHHHH”, for which the “soluble on expression in E. coli” value is “soluble”. The same measure for “MSLSEELQQKLRDQLWEVANRLRGNMSASDFMYFTLGFIFYKYLSEKIEKYANNALADDDITFKELWETDDADAIELQEEAKNQCLENIGYFIEPQFLFSSVIEAIKRKENILPMLERSLKRIEDSTLGQDSEDDFGGLFSDIDLASPKLGKTADDKNTLVSNVLLALDDINFGLEASQEIDILGDAYEYMISQFAAGAGKKAGEFYTPQEVSRILAEIVAIGHQRLRNVYDPTCGSGSLLLRAASIGNAVDIYGQEKNPTTYNLARMNMLLHGIRFSNFKIENGDTLEWDAFGDTQFDAVVANPPFSAEWSAADKFNTDDRFSKAGRLAPRKTADYAFILHMIYHLNEGGTMACVAPHGVLFRGNAEGVIRRFLIEKKNYVDAIIGLPANIFYGTSIPTCILVFKKCRKEDDNILFIDASKEFEKVKTQNKLREQHIQKIVETYRDRKEIEKYSHLASLQEIAENDYNLNIPRYVDTFEEEEPIDIKAVMAEIKELEAKRAELDKEIEVYLKELGIVEEGHHHHHH”: “soluble”; for “MSLSEGPKKAGVLGSPIAHSRSPQLHLAAYRALGLHDWTYERIECGAAELPVVVGGFGPEWVGVSVTMPGKFAALRFADERTARADLVGSANTLVRTPHGWRADNTDIDGVAGALGAAAGHALVLGSGGTAPAAVVGLAELGVTDITVVARNSDKAARLVDLGTRVGVATRFCAFDSGGLADAVAAAEVLVSTIPAEVAAGYAGTLAAIPVLLDAIYDPWPTPLAAAVGSAGGRVISGLQMLLHQAFAQVEQFTGLPAPREAMTCALAALDEGHHHHHH”: “soluble”. The same measure for “MSLSEKIIQLNEGIIKEELKNLVRSSVEETLNHLLDKEAEDLTNAAKYERTQERQGYRSGHYTRSLQTTSGEVTLRVPKLKGVPFETAIIERYRRRESSVEEALIEMYLAGVSVRRVEDITEALWGTKVSPGTISELNKKAYVHIENWRNRPLQDGKYPYVYVDGIYLKRNWGGEYENVSILVAIAVNQEGYREVIGAREGMKEDKASWKEFLQWLKGRGLDGVKLIVGDKCLGMLESVNEVFPEAKYQRCTVHFYRNIFSVTPRSKMKLVAKMLKAIHAQESKASAREKAKLVAEELKSMKLREAAKKLEDGIEETLTYMEFPYEHWTRIRTNNTIERLNREIRRRTRVVGTFPDGNSALMLVCARLRHVAGTQWGSKKYLNMKHLENMDSDEGHHHHHH”: “soluble”; for “MSLSELAVTEAEKGQDMIRSAVGEIKITNASLACYSWPRAQPIQNGLHTYVNVNIAITKIETDIGITGYGIGRNNPGENAIRHQFLSTMIGKDPTATAAVWAQLWSPKLYGRRGQETKALSSIDMALWDIKGKIAGMPIWRLLGGYRNRIPTYVAGGYYAKGKGLKDLQQEMANHVERGARGVKMKVGAVDIAEDVERINAVRKALGPDIKLMIDANCAYTYFDAIRLAKRVEEFDIYWFEEPVQPDDYEGFTKLSRATSIPLATGENEYTKHGFRDLIATQAISFLQPDARYMGGVTEFMKVAAMAEAHGLVICPHGDQQAHIQLLGAIPNAHLLEFYPKELNPMFGSVYKHTPDLNEDGTVTIPDVPGMATEPNEKMLERYRVAEGHHHHHH”: “soluble”. For the sequence “MSLSERTFNWKNKDIRAQVDVVDSKLLPTLLLRNALVLNPYVKQWLKKNIWIYQDRIVYVGHELPNRAEEIHTIDCEGKYIVPGYIEPHAHPFQIYNPQTLAEYVSQYGTTTFVNDNLFLLLQSGKKKALTILNELKKQPVQYFWWSRYDLQTEVLNEDHVLPFDVRKQWIEHPDVIQGGEMTGWPRLVDGDDLMLHCMQATKKQRKRIEGHFPGASDKTLTKMKLFGADCDHEAMTGDEVMRRLELGYYVSLRNSSIRPDVRKILQELHEKGFRYYDHFFYTTDGATPNFYKGGMTNELIRIALEEGVPAIDAYNMASFNIAKYYQMDDYLGVVGPGRLASLNILEDPLNPNPVTVLSKGTILRENGCDLKAFTKTDWHKGGLVPLELSYDMTMDDLQFSMPMGVKMRNAVIMEPYMIEIDNSMEQLSFDHDESYLTMLDRHGKWRVNTMIKGFASSVQGFVSSFTTTGDIVAIGKNKADMLLAFARMKEIGGGIVLAENGNILHEIPLALCGCASSEAYEDVLEKEQKLRDLLTERGYEFCDPIYTLLFLQSTHLPYIRITPRGIFDVMKKTVLFPSIMREGHHHHHH”, the “soluble on expression in E. coli” value is listed as “not soluble”. The same measure for “MSLSFKNVNLIYADIATDSAETPETVLTQDDLEKEFEFWEATSLGLFDYMRKSRSKGFVLSLSGGADSSACAIMVAEMIRKGLKELGLTAFLQKSNMETLFDLPALQHLPFEEQAKKITAVFLTTAYQSTRNSGDETYTSAKTLAESIGATFYNWSVDEEIEQYKATIENVIERPLTWEKDDITLQNIQARGRAPIIWMLTNVKQALLITTSNRSEGDVGYATMDGDTAGGIAPIAGVDKDFIRSWLRWAEKNRNQHGLHIVNKLAPTAELRPSEYTQTDERDLMPYDVLARIERKAIKERLSPVQVYTALLTEGPYTKNEFKYWVKKFFRLWSINQWKRERLAPSFHMDDFNIDPRSWYRFPILSSGFAKELNDLDQEGHHHHHH”: “not soluble”. For “MSLSHIHFLIALATLVPVTAPAMQVSTQAPLVDATGQTLHIRGVTWPGFDRAGLTAVGMRNNTLAQLLDRMQASDINAVRVPVCAAVLQRAPVAAAEVAGDSTLRGLDSLQLLDAVVHAATQRGMHVMFAFADGGCDDRAPLLGAQQQAWTRGLVTLARRYGGNANVLGIDLGSSGYRNASWAGNAADQNWNRVASRAAAMVLAQAPRWVVGVEGVGSNAVCSDPGRKALGSNLQPFACVPLDIAPRHLVLMPKLAGPDRDTTDAFAAPGFAQALPAMWQRDFGQFAIDHTVVPVSLGGGLGDGDPRDPAWQTALSGYLANTGMRSAFLGSWETSNANNGGLLAPDGSPRADKLLILRHAWGMLPVMPAIATATGDSTKNASGTKGWNSTFTGTATSTGSGYSGGAVLLDPIPSDAFITALNSTQMNFGGIKAALAGAYLEVTGPKGKTTVYVTDLYPDGASGGLDLSYNAFAAIGNLADGHIPISWKVVRAPITGNVQYRIKEGSSRYWAAIQVRHHIYPVVKLEVKQGSTWTSLPKTPYNHFVGTNLGNKPLSIRITDIRGKVIADKIPALPEYGGSAAYFEPGHVQFPEGHHHHHH” the value was “soluble”; for “MSLSIFKRKTKQVNPFEQGWLTDLIDIHCHLLPAVDDGSKSIEETLSLIDLLEEIGVKQHILTPHIMEEYPSNDAIFLRARFEELLAAITPDKASRLRLAAEYMLDVAFLDRLAEPLLTLGDRYILVETSYMAPPIGLMGLLADLRFKGLSPVLAHPERYLYMEEKDYVAIKKQGVMFQLNLFSLFGAYNSSASEKAYALLEAGYYDLIGTDIHHLQPIARLLSEASLPPDLEGKIKSLVENNTRLFSEGHHHHHH”, “soluble”. The same measure for “MSLSKIKEIRTKVYQWNGKTVPPQNNFCTNASDLLFEKSDAMGSFRFHEWLICEIETDDGVIGIGNAALAPQIAKKTIDTYLKPLVIGEDPFDYAYIWEKMYRRTHAWGRRGIGMVAISAIDIAIWDIMGKITNKPVFKLLGGRTKEKIPVYASKLYSQPIKALQKEAESYVKQGFKMFKMRFGWGPKDGPDGMKKNIALAEAVREVIGEDTDLMMECYMGWNLDYAKRMIPKLMKFNPRWLEEPVIADDIHGYEELNKMNMIPISGGEHEFNIFGFKQLLDLKAVSYIQYDNNRVGGFTAAQKINAIAEAHQVPVIPHAGQMHNYHLTMSNFNCPISEFFPVHDVEIGNELFYYIFEGDPAPKDGFIDLDDNKPGLGLTITDKYKSDFKIIEEGHHHHHH”: “soluble”; for “MSLSKKPCAHIDCELEGGFERSIWIPVRVARLYVKNRPDLPCDWDNFREAVQLIERQCALTMVTEMLSRRDHATGEVCDKLARYGFHQPAIDFAVERATEYHFLDENRFCSYFIEERKRRGWGQRKIETELKRRHVVLDDIPGYPEDYFAVEDDLARASALLAKRRVPETRGFEKLVRFLMGKGFSYHIAADAVKARLDAEREEGHHHHHH”: “not soluble”. For the sequence “MSLSKKSILLLCCSLCFISATKAVTPVRNVRNSQVNSKAKTERTKPSDSVRYISNMIADRLEFRNKISSEKEVRKAEYENRLAMEALNYPAIDLYGEDSWSEYVNPFVGAGTDVEIPNSYDIDCSSFVMPVEDKQVTSQFGYRRRFGRMHYGIDLSVNRGDTIRAAFDGKVRVRSYEARGYGYYIVLRHPNGLETVYGHMSRQLVDENQIVRAGQPIGLGGSTGRSTGPHLHFETRFMGIPINPSTIIDFDNGVPLRDIYTFKRGSNSRYAKASKTSSRYAKKGKKGRQASSPMTYRIKKGDTLETIAKRHGTSVQKLCATNGIGKSKILTPGKALRIKEGHHHHHH”, the “soluble on expression in E. coli” value is listed as “soluble”. The same measure for “MSLSKMEINKRALKENMALLACPICGEAFEFKEPQSFVCLEGHGFDIAKPGYVHLLKQAHKTKYDQALFESRKKVIASGFFEKLIERVTEIIAEKKKEQLVLYDAGCGEGSHLARVVSNLQATGVNVQAVGLDIAKEGVKQAARDYPGTSWTVADLANCPNQAETADVILNILSPSNYVEFKRLLKKDGFLLKVVPEANYLRELREFIYVDEKSSYSNESVTSRLAEKLSVEHVERVTYKAPIAKELFADFLEMTPLGWHIEADKKSELLGNPPEELTVDLQIIIANRAHLLEGHHHHHH”: “soluble”. Regarding “MSLSKNDHRITHNKSDKDNLDDDFSLFRDEVKGVKKLRQDTILHAPNRNPKQKEIRRTEREASDNDFYFSDEFMPHLTDEGPTRYARSDVSKYEVKRLRRGVYVPDVFLDMHGMTQQEAKRELGAMIAYCLKENVHCACVQHGIGKHILKQNVPLWLAQHPDVLAFHQAPLEFGGDGALLVLLSIPEKEGHHHHHH”, the “soluble on expression in E. coli” value is “soluble”. Consider “MSLSKNPTSGFRLTHVGLRVTDIDRSVTFYTSVFGMKELGRMGLDTTTVVFLGYPDAADPQTQLFAREGVLELKSQRGMAESNDYPDFRFVKLAIGVPDMATAMEHIRSHNVKILKEAGVAQGSEVVSTFLGCDMPDKGFDRPLWEAVVAVPFVEDPDGYLIEIIPYEGHHHHHH”, for which the “soluble on expression in E. coli” value was “soluble”.

With “MSLSKQISNLNSSSNKPKILSLFSGCGGLDLGFHQAGCETVWANDFSHWACESFRKNIGDVIVEGDIEQINPNDPTIPDCDIILGGFPCQDFSMIWKQPGLEGERGNLYKSFLRFVNAKKPKVFVAENVKGLLTANKKKAIQQIITDFENCGYYVQAKLYNFAEFGVPQFRERVLIVGVRLDTGFDFRHPEPTHNETGENGLKPYVTAGQAISNIPQNASNNELLKISDKTRRMLELIPEGGNFTDIPKDHPLYVKGMISHVYRRMHRNEPSKTIIAAGGGGTWGYHFPEPRAFTNRERARLQSFPDDFEFVGSTTEVRRQIGNAVPPQGVVELAKSILPIFSDNYEKVDLHEKLVEEKEILFHDRLSKIRGGKEGHHHHHH”, the “soluble on expression in E. coli” value is “soluble”.
